assay: soluble fraction after stress (log2 fold change); higher = more stays soluble; pooled small domains, quantitative proteomics; settings: stress: 75 degC
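Note: 20 min heating vs room temperature control held 20 min.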

| Sequence | soluble fraction (log2) |
| --- | --- |
| HMKEEVMVPNVVGKELSAALLEMQVKELYPKLQLKYSNFVDDKGTVLEQSPPAGSIVKAGRRINLVVSRGA | 0.106 |
| HMKEIKAPNKINAHLIEEWRSQHPTELFPEEKVDLIYYKGEEYYFVIEEKNELGEIEEWYFAYDGGIDYV | 0.372 |
| HMKEILTNESIIQFVKDKVSEEQIIYKINNSPIDFKLDVNSMVSLAKQNVSSTIIIAMENAMNN | -1.28 |
| HMKELLQEMIMDILRAIASPNIDIKRKTLDLVLDLITPRNIDNVTGMLKTEVVKSQSENTSDVG | -1.58 |
| HMKELTYSDFRKAYPDIQGNLFGMAERYITALDWTEVAAKVETDEELRKERDIFYLVKTYIRKYVQ | -1.86 |
| HMKELVAGQTVRVHHSIGFGQTGTVTALNSLKTTLPNGLRTNTASILFQNNEKVVLPISNFDIIES | -0.0164 |
| HMKELVEDFASRISNARQSKGWNQSELAKRMAETVNVVKSAESGKSPTDSVIKKLERVLGIILM | -0.778 |
| HMKEQLITVYVSGAVARPGLYELPAGIRAQEAVEAAGGFTEAANHEKVNLAKKLKDGSQVNVPALK | -0.122 |
| HMKEQYDLNDREQQFISLVANGLNNKEIAETLFLSEGTVRNYLSNLLDKLGLRDRTQLAIFFYQHL | -2.01 |
| HMKERLLDPYKDFIVNYLQKYPYTPAAVMHDKLKESYPDFPKVDPKTIYNFVMLLRRDFNIPKV | -0.842 |
| HMKETERKILQAVLGLPLKYRDVIHLFYYEEMSVKEIAEVLHRQESTVTSQLTRARGILKKNL | 0.264 |
| HMKETLSDTVSRKLEDMITTQMKAGNRLPTEMVLAEMYSVGRSTIRESLKALSSKGLIVRKKDGTFVSDRV | -0.422 |
| HMKEVKAPMPGMVLRVEVAPGQEVQEGDPLLVLEAMKMENNLKSPASGTIKSVHVEAGKAVEKGAVLVVF | -0.0661 |
| HMKEVKRDQVIEAARKLFHQFGFKKVSMDEIAKEAGVTKKTIYMYFESKEELLKYFIQEEISN | -0.373 |
| HMKEVVKVTITPSEKLKSQYPDALVSIDGKFYDLGILNNPVEFYMDKDHKISIIWSTAELVESFRI | -0.000631 |
| HMKEYRKEGHLYFVTEDRNNEIYLWDFTDKPKHEFKEIITSVELQKVAKEGAMLQYKNGKYELYS | -0.78 |
| HMKFDVNAAIRAVLNVTVDKGATLERIMKETNLTSDQLVLPIALLMKTERLHFKRSGTHEVYVSVGKAPDK | -3.79 |
| HMKFGEQIKERRQELDLTQAEVAEKLFVTRQAVSNWEHNKTYPDLNMLVKISNVYQISLDSLLR | -1.37 |
| HMKFHENLIALRRREGWSQEELGNRIGVTRQTVSKWELGLTTPELEKLVQLADVFGMTTDQLVGR | -0.295 |
| HMKFNLWLSEKLKKLGLTQRKLAEQAGVSPATVSRWLSGEFEPDLTNLRKINQVLGVPERELFLQLGL | -0.193 |
| HMKFPNVGENLRLLRQEMGISLDKASKMTGVSKAMLGQIERGESSPTVSTLWKISSGFKINFTTLLSE | -2.92 |
| HMKFPPASDIRRMRKAIDVTQTELAKQSGVSQSTIAKIERGRISASYDTVVKLFETLDEMAK | -0.405 |
| HMKFTPPTLEQIKNEMLLKTDEYNADIQSDRFFTYYDSNGWMVGKNKMKKFLVSLVAVFAATSA | -0.786 |
| HMKFYIHEIIGFNAVDKVAGIVGKVININEDSPQKKLVVNYNGKEVFIPLVDEIVRKIDKQKNEVLITMP | 0.00585 |
| HMKGEIEELLYEEVTKDNNTTFLRIYIKLNDEYNTLLNLGIIGIKTEEKVNELVNLGYKKVL | -4.19 |
| HMKGISRVTMELIIDALKKETEPRTVQWIAEKTGLATQTTYRYLQYMVSEQTVEALNVYGKVVSLKAK | -0.649 |

| Sequence | soluble fraction (log2) |
| --- | --- |
| HMKGKWKPIILWQLSKAPQSLSGLRHSIAGISQKMLIQHLNELIHFGFVVRTTFEGYPLKVEYDLTDRGR | -0.196 |
| HMKGLDAAVVDLFKSKGASIVFAGNRLSLSGEVADQATKDELLAKAKAILASLGASVSLDDKLMVKGAKAS | 0.0761 |
| HMKGMIKVASMSLGADLGLYSRHLKYLGIVHRVVEESGGQSVYIQKLNDLHTAKESLELYLKNELKI | -2.56 |
| HMKGQNRSEITAGARVKVVQKQDQRTGALTEGIVRDILTRSPHHPHGIKVRLESGIVGRVKDVL | -0.312 |
| HMKGSIMIETILKELKKNNKGFNFLLEKFDISEDELMKIINDLIHDKKVFLNSNNKYEIVSD | -0.72 |
| HMKGTVLAPGIILNADDQRFTYLQEDVASVAKDGAAIVLKQGDEVDFIADGQTAKQIYLTKT | 0.289 |
| HMKGVPGIGDYVKLSGGSTVGKVLSISGKKAEVAFGLLRTTTELSKLEKVRKPKELLQSGVSS | -0.0317 |
| HMKGVTVDGDNITVDGEKQTLISVNKNLDGDVVSYTYRTADGKLRTSRNVEVAQEINKQQLLKSIDAQ | 0.0529 |
| HMKGWPDREQAEKIWQQGIDYAIEHHTMSPQIVKEYIFHTQGIARSAALIAARLPDMDTEKAYVLGLLHD | -0.377 |
| HMKIAEALNLRGDADSYERQEAIWLLEHIVGMSALELKYRGEQDLTEDQLQQYRSGLQRLEQGEPLAYVIG | -0.965 |
| HMKIDLKQIEGVLDELAKVKGSLITILQKTQETYGYLPKEAIIYISERTGIAESEIMGVATFYTQFRL | -0.45 |
| HMKIDLTPQEEKIYSVLETELTLDEIIMKTSIKAGEALAILMDLELKKLVASVAGGKYRRKA | 0.386 |
| HMKIEETLGKTAQVYIPIPQYLSGIGKVTLSVRGSLRELDAMTEEEKIPSNTIVRIVKVQDQVLFVKRA | -3.77 |
| HMKIHNSIREITDFDRKQNSNIPSDAKYRIVFYTPQGNKTIIPEELQGLQYYRSKELAEIALNKKLNSN | -0.197 |
| HMKILKQLEAIIEKEGLNESAKQFYLREISELDKEKQQEIINLVDKMEQAGFKNNLASAFSEVTEDIPQF | -0.138 |
| HMKILNYQSLVGKKGITKSMLRPAGIVEIEGRRYDVVTRGEFIEPGKMITVDEVQGNRIIVQIERE | -0.758 |
| HMKIPIIYQPLKNAKRIKIYIPYELKELRTIFKKINTTFWHPNQKLWSIIYTQENVALIKNLFGKNYKIVN | -0.499 |
| HMKIQEVDYSTFLNMLNEKSIAQVEIQDNQIAFNSNQEGNKQIYVTGRIEEDTELVNRLQAAGVQFSRV | 0.0484 |
| HMKIRIIKTASNAKAVQIVSYKNNKRIVLQHIGSAHTDETLNDLKILAEEWIKDYNHQLSIF | -2.88 |
| HMKISDLPAAQVYREIVHAWPKAAAYADLAPINNGGMQRWRDVVHEWVLRGYNPANLRGMLEWYKAGIPTR | -0.731 |
| HMKISDMIETNLKFLRGKHSISQAELAESLGIPRTTLSAYERGFVEPNIELMLKMAKYFNVSLDDLIAYN | -2.07 |
| HMKISQSRKAGKLVLESELKRGGVSLDQYRGGRMSRILELIGVKSLNELLTDLGTGKKTGALVAERFFSGL | -0.618 |
| HMKITFNPVSSGRLDIILAEKTGYTRSYVKQLVEKQAVTINGEAAKKSGQNVKAGDEIALDEP | 0.151 |
| HMKITIDSVERDETFRLIWGTGWKPKNKIQELAAIQAKKNGLGRMNEVAGLAAWRGIWQQVAEQVAQEVL | -2.03 |
| HMKITKIWFTADHIFGRDEEGKEYSQSLLWYPKLSAASDEERSQYTFGYDGIHWRSLDEDISFESF | -3.01 |
| HMKIVFGHVKWFDIDKGFGFLVLEDEGGDVLLHANVLKNFGRTSVSEDTKIEFEFLETDKGRQVSTIYNIL | -3.28 |

| Sequence | soluble fraction (log2) |
| --- | --- |
| HMKIVQDIAFSDFLNEVEKDNVLDVNIKGDLINGNLADGRKFKTYTPYDPNLIEKLSNKNVTINVEPYN | 0.512 |
| HMKKAENEKLNIPYDVTEFLASSIKDDIRMMEGAMVKLLALSSLTKQDITQSLAKRVIQDVLGSSA | -0.209 |
| HMKKAMIISTKRGTPAAELDKIIREFEAKGLSVTMIRGTDYNVFGLVGDTTVIDEKQVRANPYVENVQRV | -0.157 |
| HMKKATYDVMVREALVSFKKKGATLQSIKKKIKADYAIEANATAVKSAIQKGMEAGSIRKSYDLYFFMD | -2.8 |
| HMKKDDLKQINGIGTTIEKKLNEIDIYNFYQISNLSKEDIETISEKIKTFPGKIERDNWVGQAQELL | 0.0235 |
| HMKKIFIDAPLDTMITIPKDTTHHLLTVFRHKMEKPVLVGGSDGRTGVYQIQDVVDGEASAKLVGDIQ | 0.738 |
| HMKKISAKQQQILDYISSYSLEHGYPPSVREIGAEMGLRSPSTVHAHLKKLQEAGYLEPNEHKSRALTP | -0.146 |
| HMKKITTANPLDINRATLAQLDTLPGIGPVTAERIIAYRSKVGRINSLDELKKISGLGGMKFEEIKPLLRV | 0.0978 |
| HMKKKLPRYLQEQKYGNGMVFYRYNPTARYIDEGIVTRTNLGSDLSIAKKKANEFNKLIDAFLQQQSE | -1.16 |
| HMKKMSFKEAFLKYVEIKDNPYNMESVKMLVSLQPLIVKAYSILGVDKVRRLNYVKTKIQDAIINGD | -2.7 |
| HMKKNLELGLLPHEVKSILGEPDFIDTITDIDGIRYDMWSYTKLNVTKRLYFEDLFLVRMEE | -3.31 |
| HMKKNNTTPIPKTLNYVNIKGLSNEAVERLNKHKPSTLGQASRLEGITPAATSLISIAIKKNQLLEKAES | 0.0664 |
| HMKKPAERRKELVDAAAHLFAEKGYENTSVRDILDAVGGAPGMFYYYFKSKQDIYVAVMEDF | -3.71 |
| HMKKPANLISEDRMVEVLYDVIIINTAKGVNKQLLQNNINNPLNYIYRSHGIDSLQFAESNAYYTS | -0.563 |
| HMKKSGFFSAGDRIQLTDNKGRQYSFNITEGKEFHTHQGFIKHDDLIGMPEGSVVSINSTTGVVQKFMAF | 0.32 |
| HMKKSIRIFELMKAKVAAEIFDQMILEGKIEDVFDIIVRLKDSNVSNIMKTMSVENSSRLVQKLERYNKD | -3.12 |
| HMKKVRIPDDPEEAYRKALKTAMNIVGYKDNTEFTLREKLSERGYSGETVDAVAEFMKSKGYV | -0.0562 |
| HMKKVTMQDIANILNISRVTVWKVLNNQPGVSKQLRDQILLTAKETGYLKPGQEAEAYLEENNIYFEG | -0.272 |
| HMKKYDIKEAQEIAEINRIPGLVTTSHGRRVYFDPKIMQYVSEEQIVKKYGQKTVKMLDQWYVSNILNK | -0.21 |
| HMKKYLIIDAANEKIIFKIIDNNKTYTNDYENSRKNFDRFAVLLFNFLNKNMISFDTIDKAL | -0.118 |
| HMKLARGEFEIMAKFIKEISGISLEQNKTYLIESRLSDLAESEGVKTFSDFFFKAKFNKILKEKIIDAI | -1.13 |
| HMKLHFTINGVHYTWYKQFIRGIQIRELGNIPREDELYLDLPDGWKDDFIEDDEIVDLARPGVEHFISRAK | -4.84 |
| HMKLIIVPNLVGQSRRSVEISLQQIGLRIDTVYTEFNPDYPKGTVAWQFPKSGDHIKKGMGLQITVSQG | -0.391 |
| HMKLINEDLNNEIVFEENKVNLLVIENKKKFVQFIQEIIKQINGDEGKFSLFDINTELKIHDKIDII | 0.174 |
| HMKLIPLTDMRGQLRSGAPLPWGVRDAQGNLLLGKGHVIASDDMLEALLARGMFVDAEEAKAARG | 0.0132 |

— the domain aggregation screens of Martell et al. (2025)
